Results: article PMC2900298

Target: HSV1(F) viral capsids treated with 0.5 M KCl (HSV1 strain F) (UniProt P10219)
Assay: immunoelectron microscopy (immunogold labelling of capsids, negative staining); capsids incubated with […] pig brain cytosol, adsorbed on grids, labelled with antibodies against MAP subunits and protein-A gold; gold per mono-disperse capsid counted, labelling of capsids in buffer subtracted as background

UniProt P10219, sequence (P10219 whole entry, looked up): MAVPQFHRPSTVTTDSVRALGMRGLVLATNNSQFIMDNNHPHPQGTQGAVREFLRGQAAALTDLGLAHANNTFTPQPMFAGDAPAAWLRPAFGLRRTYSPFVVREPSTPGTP

Substance | gold particles per capsid above background | percent of capsids with more than one complex, background taken into account | percent of capsids with two labels
cytoplasmic dynein of pig brain cytosol (complex) | 0.75 gold/capsid | 20% | 40%
kinesin-1 of pig brain (complex) | 0.5 gold/capsid | 10% | 20%
kinesin-2 of pig brain cytosol (complex) | 0.5 gold/capsid | – | 8%
